Values quoted from earlier work, collected in publication PMC5040164.

Biological target: SAS1B (Mus musculus) (UniProt Q6HA09)
Sequence of UniProt Q6HA09 (Q6HA09 24-435): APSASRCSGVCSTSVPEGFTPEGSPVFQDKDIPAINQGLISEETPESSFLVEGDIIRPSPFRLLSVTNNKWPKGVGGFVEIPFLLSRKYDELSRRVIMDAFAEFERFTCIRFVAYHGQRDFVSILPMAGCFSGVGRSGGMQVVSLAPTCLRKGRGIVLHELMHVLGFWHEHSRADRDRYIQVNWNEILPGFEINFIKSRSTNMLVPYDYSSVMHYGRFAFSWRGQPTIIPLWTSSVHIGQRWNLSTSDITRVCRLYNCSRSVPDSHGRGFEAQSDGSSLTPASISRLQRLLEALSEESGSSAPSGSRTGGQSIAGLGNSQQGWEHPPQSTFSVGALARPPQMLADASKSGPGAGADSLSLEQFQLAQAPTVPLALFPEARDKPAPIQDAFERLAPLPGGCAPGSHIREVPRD

- Kd: 0.32 nM
Substance: SLLP1 (from UniProt Q9D9X8)
